Data: patent US20130310310A1

Tests used:
GLP-1 receptor [1] = target: GLP-1 receptor
GLP-1 receptor [2] = target: GLP-1 receptor; remark: listed apart in the source

Row | Substance | EC50, GLP-1 receptor agonistic activity (CRE-luciferase reporter in HEK293 cells) (GLP-1 receptor [1]) [nM] | EC50 (nM), GLP-1 receptor agonistic activity (CRE-luciferase reporter in HEK293 cells) (GLP-1 receptor [2]) [nM]
1 | Exendin-4 (peptide) | 1.93 | 
2 | [Cys^21(mPEG5000-MAL)] Exendin-4 (peptide) |  | 22.5
